In patent publication US20240368263A1 (PROMETHEUS BIOSCIENCES, published 2024):
Residue numbers refer to the chain shown, from its start.

T1: human TL1A (Fitzgerald, Prod. #30R-AT070) (human, UniProt O95150 72-251, limits assumed, biotinylated with EZ-Link Sulfo-NHS-LC-Biotin where used as soluble antigen)
T1 construct: also called TNFSF15; biotinylated human TL1A
T1 sequence (looked up): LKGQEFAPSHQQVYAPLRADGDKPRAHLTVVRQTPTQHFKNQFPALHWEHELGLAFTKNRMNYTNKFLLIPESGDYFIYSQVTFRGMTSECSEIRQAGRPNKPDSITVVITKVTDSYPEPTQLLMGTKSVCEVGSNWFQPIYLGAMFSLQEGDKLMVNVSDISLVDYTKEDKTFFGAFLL

T2: Fas/TNFSF6 (R&D Systems, cat. no. 126-FL/CF) (UniProt P48023 134-281)
T2 sequence (looked up): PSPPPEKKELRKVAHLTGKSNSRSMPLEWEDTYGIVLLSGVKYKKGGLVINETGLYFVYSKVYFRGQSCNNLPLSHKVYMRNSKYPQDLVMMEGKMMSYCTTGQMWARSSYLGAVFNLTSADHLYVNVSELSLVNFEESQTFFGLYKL

B1: 18-7 (CDR-grafted LC) Fab (Fab, V domains shown)
VH: QVQLVQSGAEVKKPGASVKLSCKASGFDIQDTYMHWVRQAPGQGLEWMGRIDPASGHTKYDPKFQVRVTMTRDTSTSTVYMELSSLRSEDTAVYYCSRSGGLPDVWGQGTTVTVSS
VL: EIVLTQSPGTLSLSPGERATLSCRASSSVSYMYWYQQKPGQAPRLLIYATSNLASGIPDRFSGSGSGTDFTLTISRLEPEDFAVYYCQQWSGNPRTFGGGTKLEIK
notes: Fab; also called clone 18-7
B2: Clone X Fab (Fab, V domains shown)
VH: QVQLVQSGAEVKKPGASVKVSCKASGFDIQDTYMHWVRQAPGQGLEWMGRIDPASGHTKYDPKFQGRATITTDTSASTAYLQLSSLRSEDTAVYYCARSGGLPDFWGQGTTVTVSS
VL: B1 VL
notes: Fab
B3: Clone 2 Fab (Fab, V domains shown)
VH: B1 VH with L20V, D52E, T58I, D61S, V66G, S97A, V105W
VL: B1 VL with S91E
notes: Fab
B4: clone 7-4 Fab (12835 framework variant) (Fab, V domains shown)
VH: B1 VH with R72T
VL: B1 VL with L46W, I57V, F70Y
notes: Fab
B5: Clone 14 Fab (Fab, V domains shown)
VH: B1 VH with L20V, T58I, V66K, S97A, V105M
VL: B1 VL with S91Q
notes: Fab; also called variant 14
B6: clone 27 Fab (12835 framework variant) (Fab, V domains shown)
VH: B1 VH with L20V, R72T
VL: B1 VL with L45P, I57V, F70Y
notes: Fab
B7: clone 17-2 Fab (12835 framework variant) (Fab, V domains shown)
VH: B1 VH
VL: B1 VL with I57V
notes: Fab
B8: Clone 46 Fab (Fab, V domains shown)
VH: B1 VH with L20V, D52E, T58V, D61S, S97A, V105W
VL: B1 VL with S91E
notes: Fab
B9: clone 9-1 Fab (12835 framework variant) (Fab, V domains shown)
VH: B1 VH
VL: B1 VL with L45P, L46W, I57V
notes: Fab
B10: Clone 53 Fab (Fab, V domains shown)
VH: B1 VH with L20V, D52E, T58L, V66E, S97A, V105K
VL: B1 VL with S91E
notes: Fab; also called variant 53
B11: Clone 17L Fab (Fab, V domains shown)
VH: B1 VH with L20V, T58L, S97A, V105M
VL: B1 VL with S91Q
notes: Fab
B12: Clone 23 Fab (Fab, V domains shown)
VH: B1 VH with L20V, T58L, V66N, S97A, V105K
VL: B1 VL with S91E
notes: Fab; also called variant 23
B13: clone 2-3 Fab (12835 framework variant) (Fab, V domains shown)
VH: B1 VH with R72T
VL: B1 VL with L45P, L46W, F70Y
notes: Fab
B14: Clone 52 Fab (Fab, V domains shown)
VH: B1 VH with L20V, D52E, T58I, D61S, V66G, S97A, V105W
VL: B1 VL with R24G, S91E
notes: Fab
B15: clone 3-4 Fab (12835 framework variant) (Fab, V domains shown)
VH: B1 VH with R72T
VL: B1 VL with L45P, L46W, I57V
notes: Fab
B16: Clone 47 Fab (Fab, V domains shown)
VH: B1 VH with L20V, D52E, T58V, V66T, S97A, V105W
VL: B1 VL with S91E
notes: Fab; also called variant 47
B17: 12835 (humanized 5C3D11) Fab (Fab, V domains shown)
VH: B1 VH with R72T
VL: B1 VL with A19V, L21M, L45P, L46W, I57V, F70Y
notes: Fab
B18: clone 5-2 Fab (12835 framework variant) (Fab, V domains shown)
VH: B1 VH
VL: B1 VL with A19V, L21M, L45P, L46W, I57V, F70Y
notes: Fab
B19: clone 26 Fab (12835 framework variant) (Fab, V domains shown)
VH: B1 VH with L20V, R72T
VL: B1 VL with L45P, L46W, I57V, F70Y
notes: Fab
B20: clone 13-2 Fab (12835 framework variant) (Fab, V domains shown)
VH: B1 VH with S97A
VL: B1 VL with L45P, L46W, I57V, F70Y
notes: Fab
B21: clone 5-1 Fab (12835 framework variant) (Fab, V domains shown)
VH: B1 VH
VL: B1 VL with L45P, L46W, I57V, F70Y
notes: Fab
B22: clone 1-3 Fab (12835 framework variant) (Fab, V domains shown)
VH: B1 VH with R72T
VL: B1 VL with A19V, L21M, L45P, L46W, F70Y
notes: Fab
B23: clone 1-4 Fab (12835 framework variant) (Fab, V domains shown)
VH: B1 VH with R72T
VL: B1 VL with A19V, L21M, L46W, F70Y
notes: Fab
B24: clone 21 Fab (12835 framework variant) (Fab, V domains shown)
VH: B1 VH with R72T
VL: B1 VL with L46W, F70Y
notes: Fab
B25: clone 19 Fab (12835 framework variant) (Fab, V domains shown)
VH: B1 VH with R72T
VL: B1 VL with F70Y
notes: Fab
B26: clone 10-1 Fab (12835 framework variant) (Fab, V domains shown)
VH: B1 VH
VL: B1 VL with I57V, F70Y
notes: Fab
B27: clone 19-5 Fab (12835 framework variant) (Fab, V domains shown)
VH: B1 VH with L20V
VL: B1 VL with I57V, F70Y
notes: Fab
B28: 21-3 (CDR-grafted HC) Fab (Fab, V domains shown)
VH: B1 VH with L20V, S97A
VL: B1 VL with I57V, F70Y
notes: Fab; also called clone 21-3
B29: clone 20-7 Fab (12835 framework variant) (Fab, V domains shown)
VH: B1 VH with S97A
VL: B1 VL with I57V, F70Y
notes: Fab
B30: clone 16-2 Fab (12835 framework variant) (Fab, V domains shown)
VH: B1 VH
VL: B1 VL with F70Y
notes: Fab
B31: clone 22 Fab (12835 framework variant) (Fab, V domains shown)
VH: B1 VH with R72T
VL: B1 VL with A19V, L21M, L45P, L46W, I57V
notes: Fab
B32: clone 5-4 Fab (12835 framework variant) (Fab, V domains shown)
VH: B1 VH with R72T
VL: B1 VL with L45P, L46W, I57V, F70Y
notes: Fab
B33: Clone 34 Fab (Fab, V domains shown)
VH: B1 VH with L20V, D52E, T58I, V66G, S97A, V105W
VL: B1 VL with S91E
notes: Fab; also called variant 34

Tests used:
[1] = biological target: T1, human TL1A (Fitzgerald, Prod. …); test: capture lift screen and Fab ELISA on coated TL1A
[2] = biological target: T2, Fas/TNFSF6 (R&D Systems, cat. no. …); test: ELISA, antigen coated at 1 µg/ml, Fab titrated
Experimental: (§1) Next, all the Fab variants were characterized for their selectivity for human TL1A relative to other TNFSF members TRAIL, LIGHT and Fas. […] The plate was washed 3 times with PBS-T and blocked with 100 μl of 1% BSA/PBS. The block was discarded and the Fab variants or control antibodies (Fas/TNFSF6, R&D Systems, cat. no. AF126; TRAIL/TNFSF10, R&D Systems, cat. no. AF375; LIGHT/TNFSF14, R&D Systems, cat. no. AF664) were titrated in 50 μl 1% BSA/PBS and incubated for 1 h at 25° C. The plate was washed 3 times with PBS-T and secondary HRP-conjugated antibody (diluted 5,000-fold in 1% BSA/PBS) was added for 1 h at 25° C. The plate was washed 3 times with PBS-T and developed.

[3] = biological target: LIGHT/TNFSF14 (R&D Systems, cat. no. 664-LI/CF) (UniProt O43557 74-240); test: ELISA, antigen coated at 1 µg/ml, Fab titrated
Experimental: as §1

[4] = biological target: TRAIL/TNFSF10 (R&D Systems, cat. no. 375-TL/CF) (UniProt P50591 114-281); test: ELISA, antigen coated at 1 µg/ml, Fab titrated
Experimental: as §1

Sequence of TRAIL/TNFSF10 (R&D Systems, cat. no. 375-TL/CF) (P50591 114-281 limits assumed): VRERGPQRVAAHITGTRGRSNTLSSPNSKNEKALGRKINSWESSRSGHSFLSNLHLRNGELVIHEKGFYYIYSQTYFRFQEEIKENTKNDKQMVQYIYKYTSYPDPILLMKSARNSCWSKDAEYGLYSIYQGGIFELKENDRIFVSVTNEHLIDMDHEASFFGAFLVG
Sequence of LIGHT/TNFSF14 (R&D Systems, cat. no. 664-LI/CF) (O43557 74-240 limits assumed): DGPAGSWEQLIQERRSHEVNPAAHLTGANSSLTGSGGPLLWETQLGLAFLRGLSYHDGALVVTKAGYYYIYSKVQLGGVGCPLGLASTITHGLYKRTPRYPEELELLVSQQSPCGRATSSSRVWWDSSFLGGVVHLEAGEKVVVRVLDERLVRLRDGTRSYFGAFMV

| Binder | binding result [1] | binding result [2] | binding result [3] | binding result [4] |
| --- | --- | --- | --- | --- |
| B1 | binds |  |  |  |
| B2 |  | no binding | no binding | no binding |
| B3 |  | no binding | no binding | no binding |
| B4 | binds |  |  |  |
| B5 |  | no binding | no binding | no binding |
| B6 | binds |  |  |  |
| B7 | binds |  |  |  |
| B8 |  | no binding | no binding | no binding |
| B9 | binds |  |  |  |
| B10 |  | no binding | no binding | no binding |
| B11 |  | no binding | no binding | no binding |
| B12 |  | no binding | no binding | no binding |
| B13 | binds |  |  |  |
| B14 |  | no binding | no binding | no binding |
| B15 | binds |  |  |  |
| B16 |  | no binding | no binding | no binding |
| B17 | binds |  |  |  |

| Binder | binding result [1] | binding result [2] | binding result [3] | binding result [4] |
| --- | --- | --- | --- | --- |
| B18 | binds |  |  |  |
| B19 | binds |  |  |  |
| B20 | binds |  |  |  |
| B21 | binds |  |  |  |
| B22 | binds |  |  |  |
| B23 | binds |  |  |  |
| B24 | binds |  |  |  |
| B25 | binds |  |  |  |
| B26 | binds |  |  |  |
| B27 | binds |  |  |  |
| B28 | binds |  |  |  |
| B29 | binds |  |  |  |
| B30 | binds |  |  |  |
| B31 | binds |  |  |  |
| B32 | binds |  |  |  |
| B33 |  | no binding | no binding | no binding |
